Tests used:
[1] = molecular target: 70-kDa N-terminal FN fragment (FN70); assay: solid-phase binding assay; details: FN70 25 μg/ml coated on plate, read off a plot
[2] = molecular target: Full-length fibronectin (UniProt P02751); assay: solid-phase binding assay; details: FN-FL 25 μg/ml coated on plate, read off a plot
[3] = [HSP90α] 2.5 µM (read from x axis), parent: est. 1.4
[4] = [HSP90α] about 0.31 µM (read from x axis), parent: est. 1.1
[5] = [HSP90α] about 0.63 µM (read from x axis), parent: est. 1.3
[6] = [HSP90α] about 1.25 µM (read from x axis), parent: est. 1.4

Full-length fibronectin, sequence (P02751 32-2477): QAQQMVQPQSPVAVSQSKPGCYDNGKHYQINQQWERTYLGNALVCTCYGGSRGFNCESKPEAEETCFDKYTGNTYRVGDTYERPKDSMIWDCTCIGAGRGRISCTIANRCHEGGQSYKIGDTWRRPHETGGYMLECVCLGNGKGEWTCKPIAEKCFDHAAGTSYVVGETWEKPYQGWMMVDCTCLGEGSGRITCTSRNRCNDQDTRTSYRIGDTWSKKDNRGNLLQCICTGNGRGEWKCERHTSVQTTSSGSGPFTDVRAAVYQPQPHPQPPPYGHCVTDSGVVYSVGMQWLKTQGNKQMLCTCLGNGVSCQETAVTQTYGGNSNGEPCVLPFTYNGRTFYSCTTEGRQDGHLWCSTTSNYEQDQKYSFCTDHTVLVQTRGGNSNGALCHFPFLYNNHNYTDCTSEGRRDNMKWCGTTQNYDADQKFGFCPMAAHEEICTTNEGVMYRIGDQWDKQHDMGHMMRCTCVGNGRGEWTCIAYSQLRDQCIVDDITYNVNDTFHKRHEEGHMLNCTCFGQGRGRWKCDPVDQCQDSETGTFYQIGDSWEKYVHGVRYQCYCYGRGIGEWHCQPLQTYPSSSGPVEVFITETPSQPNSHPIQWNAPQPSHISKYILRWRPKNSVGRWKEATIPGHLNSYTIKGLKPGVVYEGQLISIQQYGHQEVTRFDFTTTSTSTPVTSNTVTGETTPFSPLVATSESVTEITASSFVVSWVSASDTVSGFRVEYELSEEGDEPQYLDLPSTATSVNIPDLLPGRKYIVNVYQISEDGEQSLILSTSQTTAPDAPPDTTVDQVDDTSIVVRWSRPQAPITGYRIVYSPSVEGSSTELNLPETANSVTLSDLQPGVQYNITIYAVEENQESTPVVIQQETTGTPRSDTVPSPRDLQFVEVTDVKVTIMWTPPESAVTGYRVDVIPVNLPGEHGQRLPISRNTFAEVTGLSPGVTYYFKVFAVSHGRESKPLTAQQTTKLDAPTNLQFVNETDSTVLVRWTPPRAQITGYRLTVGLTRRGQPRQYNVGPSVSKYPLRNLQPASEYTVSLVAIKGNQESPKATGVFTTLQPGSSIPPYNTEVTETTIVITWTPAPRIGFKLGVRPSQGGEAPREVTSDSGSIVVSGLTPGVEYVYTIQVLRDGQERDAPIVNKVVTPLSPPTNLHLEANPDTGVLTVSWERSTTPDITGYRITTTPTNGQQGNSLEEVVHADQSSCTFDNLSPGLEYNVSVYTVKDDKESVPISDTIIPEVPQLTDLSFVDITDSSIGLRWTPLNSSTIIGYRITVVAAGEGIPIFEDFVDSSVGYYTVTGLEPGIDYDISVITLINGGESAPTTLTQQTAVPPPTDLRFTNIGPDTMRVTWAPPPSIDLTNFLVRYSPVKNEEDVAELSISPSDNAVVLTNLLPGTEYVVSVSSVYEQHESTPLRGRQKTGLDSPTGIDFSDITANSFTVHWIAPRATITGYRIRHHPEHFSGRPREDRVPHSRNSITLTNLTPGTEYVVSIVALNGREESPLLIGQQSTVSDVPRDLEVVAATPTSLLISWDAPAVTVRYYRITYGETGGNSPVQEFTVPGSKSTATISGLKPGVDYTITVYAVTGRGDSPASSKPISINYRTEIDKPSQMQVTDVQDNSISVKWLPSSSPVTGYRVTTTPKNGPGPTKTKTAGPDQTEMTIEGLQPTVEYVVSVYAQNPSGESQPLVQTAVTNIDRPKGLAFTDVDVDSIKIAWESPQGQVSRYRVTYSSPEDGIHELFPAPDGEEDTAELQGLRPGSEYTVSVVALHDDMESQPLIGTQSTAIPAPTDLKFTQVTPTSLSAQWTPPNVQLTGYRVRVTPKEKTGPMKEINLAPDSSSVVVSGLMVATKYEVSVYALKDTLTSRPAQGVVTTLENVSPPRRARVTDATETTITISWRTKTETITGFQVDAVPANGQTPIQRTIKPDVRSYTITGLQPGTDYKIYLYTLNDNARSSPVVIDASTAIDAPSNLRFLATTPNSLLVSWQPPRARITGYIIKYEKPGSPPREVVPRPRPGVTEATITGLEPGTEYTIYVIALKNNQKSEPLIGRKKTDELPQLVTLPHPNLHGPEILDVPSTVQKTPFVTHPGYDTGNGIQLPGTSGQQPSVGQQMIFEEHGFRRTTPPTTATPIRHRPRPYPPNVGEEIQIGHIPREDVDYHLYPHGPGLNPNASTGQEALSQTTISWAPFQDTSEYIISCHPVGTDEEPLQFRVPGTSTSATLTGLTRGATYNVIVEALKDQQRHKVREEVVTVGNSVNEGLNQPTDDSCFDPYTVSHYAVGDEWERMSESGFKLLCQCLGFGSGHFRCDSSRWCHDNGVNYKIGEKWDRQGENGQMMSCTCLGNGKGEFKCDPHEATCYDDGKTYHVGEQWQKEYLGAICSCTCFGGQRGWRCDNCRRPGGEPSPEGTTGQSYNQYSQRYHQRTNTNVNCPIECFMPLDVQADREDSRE

Row | response (Absorbance (450 nm)) [1, 3] | response (Absorbance (450 nm)) [1, 4] | response (Absorbance (450 nm)) [1, 5] | response (Absorbance (450 nm)) [1, 6] | response (Absorbance (450 nm)) [2, 3] | response (Absorbance (450 nm)) ([2]; [HSP90α] about 0.31 µM (read from x axis), parent: est. 1.0) | response (Absorbance (450 nm)) ([2]; [HSP90α] about 0.63 µM (read from x axis), parent: est. 1.25) | response (Absorbance (450 nm)) ([2]; [HSP90α] about 1.25 µM (read from x axis), parent: est. 1.2) | Substance
1 | 1.1 | 0.82 | 0.93 | 1.1 | – | – | – | – | Recombinant full-length wild type His-HSP90α (from UniProt P07900) Y528A
2 | – | – | – | – | 0.53 | 0.36 | 0.45 | 0.44 | Recombinant full-length wild type His-HSP90α, P07900 F352A; Y528A
3 | 1.1 | 0.72 | 0.83 | 0.99 | – | – | – | – | Recombinant full-length wild type His-HSP90α (from UniProt P07900) F352A; Y528A

— PMC10746679
